Tests used:
GlgE-WC = biological target: T1, GlgE-WC (Waddlia chondrophila, UniProt D6YT22); assay: maltosyl transfer, FACE capillary electrophoresis and Pi release; format: biochemical; conditions: 30 °C
T1 sequence (D6YT22 1-649): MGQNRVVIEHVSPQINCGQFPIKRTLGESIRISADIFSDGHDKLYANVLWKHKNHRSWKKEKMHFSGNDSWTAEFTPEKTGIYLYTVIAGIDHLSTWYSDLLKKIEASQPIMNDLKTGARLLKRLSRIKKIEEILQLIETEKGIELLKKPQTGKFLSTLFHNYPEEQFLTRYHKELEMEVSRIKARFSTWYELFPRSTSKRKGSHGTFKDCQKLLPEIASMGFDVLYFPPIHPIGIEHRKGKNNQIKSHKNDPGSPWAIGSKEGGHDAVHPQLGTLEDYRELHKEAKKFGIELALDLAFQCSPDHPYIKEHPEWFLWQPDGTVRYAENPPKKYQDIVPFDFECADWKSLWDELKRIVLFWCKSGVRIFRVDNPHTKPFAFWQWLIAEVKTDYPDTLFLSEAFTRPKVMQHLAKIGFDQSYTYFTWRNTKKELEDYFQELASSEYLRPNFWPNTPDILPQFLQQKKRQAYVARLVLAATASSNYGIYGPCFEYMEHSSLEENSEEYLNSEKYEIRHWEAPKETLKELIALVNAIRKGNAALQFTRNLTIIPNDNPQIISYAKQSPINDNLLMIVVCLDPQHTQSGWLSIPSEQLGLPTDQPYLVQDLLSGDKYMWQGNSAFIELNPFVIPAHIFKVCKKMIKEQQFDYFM

GlgA–GlgB-WC = biological target: T2, GlgA–GlgB-WC (Waddlia chondrophila, UniProt D6YUJ8); assay: […]-glucosyl incorporation into glycogen; zymogram; format: cell-based; conditions: glycogen as acceptor, 30 °C; glycogen synthase domain; labelled compound
T2 construct: gene wcw_0437; natural GlgA-GlgB gene fusion, his-tagged, modified pET15b, E. coli BW25113 delta-glgA; crude extract on zymogram
T2 sequence (D6YUJ8 1-1463): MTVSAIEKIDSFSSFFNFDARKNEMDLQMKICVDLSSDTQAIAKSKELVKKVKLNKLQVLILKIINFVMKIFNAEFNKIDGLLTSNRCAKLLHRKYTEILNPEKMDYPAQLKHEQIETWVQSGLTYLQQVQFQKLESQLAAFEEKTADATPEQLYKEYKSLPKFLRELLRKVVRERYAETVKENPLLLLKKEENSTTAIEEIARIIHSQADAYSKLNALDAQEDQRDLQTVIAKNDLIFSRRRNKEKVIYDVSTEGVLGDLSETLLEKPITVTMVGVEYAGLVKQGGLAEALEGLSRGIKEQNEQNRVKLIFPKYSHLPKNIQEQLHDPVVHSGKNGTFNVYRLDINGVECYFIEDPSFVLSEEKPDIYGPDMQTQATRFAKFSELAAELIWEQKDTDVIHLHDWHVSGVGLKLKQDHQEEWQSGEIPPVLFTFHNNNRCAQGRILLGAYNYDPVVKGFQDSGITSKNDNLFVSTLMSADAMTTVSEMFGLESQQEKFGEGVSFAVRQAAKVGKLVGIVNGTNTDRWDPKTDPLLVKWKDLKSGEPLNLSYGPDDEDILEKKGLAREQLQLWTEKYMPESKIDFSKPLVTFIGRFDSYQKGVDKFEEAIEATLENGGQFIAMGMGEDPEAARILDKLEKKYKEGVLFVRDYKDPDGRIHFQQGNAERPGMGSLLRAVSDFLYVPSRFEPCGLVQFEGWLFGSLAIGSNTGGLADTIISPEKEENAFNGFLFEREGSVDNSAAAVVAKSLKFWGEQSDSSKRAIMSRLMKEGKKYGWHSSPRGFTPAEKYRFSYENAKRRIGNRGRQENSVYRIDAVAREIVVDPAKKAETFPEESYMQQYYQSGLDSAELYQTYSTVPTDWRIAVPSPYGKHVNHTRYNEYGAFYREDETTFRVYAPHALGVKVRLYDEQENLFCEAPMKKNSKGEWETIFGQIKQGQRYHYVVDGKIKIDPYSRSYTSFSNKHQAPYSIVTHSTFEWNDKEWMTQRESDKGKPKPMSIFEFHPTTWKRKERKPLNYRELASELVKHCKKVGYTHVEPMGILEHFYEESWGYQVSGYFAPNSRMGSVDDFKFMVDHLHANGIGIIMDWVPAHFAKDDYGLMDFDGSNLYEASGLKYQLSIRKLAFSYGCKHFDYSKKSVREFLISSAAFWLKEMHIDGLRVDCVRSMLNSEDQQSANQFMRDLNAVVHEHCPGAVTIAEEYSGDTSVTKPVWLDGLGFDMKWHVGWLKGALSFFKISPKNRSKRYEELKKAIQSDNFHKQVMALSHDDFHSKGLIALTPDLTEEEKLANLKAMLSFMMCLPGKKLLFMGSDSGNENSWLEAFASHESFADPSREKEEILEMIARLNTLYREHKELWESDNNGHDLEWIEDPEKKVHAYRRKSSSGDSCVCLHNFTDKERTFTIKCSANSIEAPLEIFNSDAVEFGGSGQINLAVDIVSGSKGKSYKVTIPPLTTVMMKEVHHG

[1] = biological target: bifunctional TreS-Mak of Estrella lausannensis (trehalose synthase fused to maltokinase) (Estrella lausannensis); assay: SEC; Superose 6 10/300 GL, PBS (10 mM orthophosphate, 140 mM NaCl, pH 7.4), 4 °C, 0.3 mL/min; apparent molecular weight against standard proteins
[2] = tested on: OC[C@H]1O[C@H](O[C@H]2O[C@H](CO)[C@@H](O)[C@H](O)[C@H]2O)[C@H](O)[C@@H](O)[C@@H]1O; assay: purified protein; conditions: TreS domain, 1 mM MnCl2, no ATP, 125 mM imidazole pH 8, 150 mM NaCl, 30 °C
[3] = tested on: O=P(O)(O)O[C@H]1O[C@H](CO)[C@@H](O[C@H]2O[C@H](CO)[C@@H](O)[C@H](O)[C@H]2O)[C@H](O)[C@H]1O; assay: purified protein; conditions: 10 mM maltoheptaose as acceptor per Fig. 5 legend (b24 text assigns the acceptors the other way round), pH 6.8, 30 °C, positive cooperativity
[4] = biological target: the molecule itself; assay: SEC; Superose 6 10/300 GL, PBS (10 mM orthophosphate, 140 mM NaCl, pH 7.4), 4 °C, 0.3 mL/min; apparent molecular weight against standard proteins

With `O=P(O)(O)O[C@H]1O[C@H](CO)[C@@H](O[C@H]2O[C@H](CO)[C@@H](O)[C@H](O)[C@H]2O)[C@H](O)[C@H]1O` [M1P, maltose-1-phosphate] as the molecule, how does the “maltosyl transfer, FACE capillary electrophoresis and Pi release” value (GlgE-WC; 5 mM malto-oligosaccharide acceptors, 1.6 mM M1P) read?
Its value is “both GlgE activities enable the transfer the maltosyl moiety of M1P onto the glucan primer”.

How did the “14C-glucosyl incorporation into glycogen; zymogram” value (GlgA–GlgB-WC) turn out when `Nc1ncnc2c1ncn2[C@@H]1O[C@H](COP(=O)(O)OP(=O)(O)O[C@H]2O[C@H](CO)[C@@H](O)[C@H](O)[C@H]2O)[C@@H](O)[C@H]1O` [ADP-glc, ADP-glucose] was run?
Its value is “is functional but highly specific for ADP-glucose”.

How did the stoichiometry N [1] turn out when “bifunctional TreS-Mak of Estrella lausannensis (trehalose synthase fused to maltokinase) (enzyme)” was run?
The stoichiometry N was 2.

For “TreS-Mak of Estrella lausannensis (Estrella lausannensis)”, which Km [2] is on record?
Its Km is 42.3 ± 2.7 mM.

With `OC[C@H]1O[C@H](O[C@H]2[C@H](O)[C@@H](O)[C@@H](O[C@H]3[C@H](O)[C@@H](O)[C@@H](O[C@H]4[C@H](O)[C@@H](O)[C@@H](O[C@H]5[C@H](O)[C@@H](O)[C@@H](O[C@H]6[C@H](O)[C@@H](O)[C@@H](O[C@H]7[C@H](O)[C@@H](O)C(O)O[C@@H]7CO)O[C@@H]6CO)O[C@@H]5CO)O[C@@H]4CO)O[C@@H]3CO)O[C@@H]2CO)[C@H](O)[C@@H](O)[C@@H]1O` (stereo partly shown) [DP7, maltoheptaose] as the molecule, how does the “maltosyl transfer, FACE capillary electrophoresis and Pi release” value (GlgE-WC; acceptor with 1.6 mM M1P, also disproportionated without M1P) read?
The value was “GlgE activities harbor an α-1,4-glucanotransferase activity exclusively with glucans composed of six or seven”.

How did the K0.5 [3] turn out when GlgE-EL (Estrella lausannensis) was run?
The K0.5 was 0.33 ± 0.02 mM.

B1: GlgE of Estrella lausannensis (maltosyl-1-phosphate transferase; α-maltose-1-phosphate: 1,4-α-D-glucan 4-α-D-maltosyltransferase) (enzyme, UniProt A0A0H5DRC6 1-675, looked up)
chain: MSVSAAEKRQLLTQVKASGSMYTNTLHSIVIQNISPKPEPFGPAKRVLLEQVEVEADIFTDPHTKLEADLIVKAPGLRKTTRIPFHPLVNDRFKAVFVPDTPGTYSFFVEAWVNPAALWQEDLRKKQEARLDLTVDLQIGAALLVEVADLLPPEESVKLLQIAKKLREQKGAEAVAFDPEIARLGRLARPKSRQGVCSQEQEVFVTRKKALFSTWYELFPRSCSGTMRHGTFNDVVAKLPRISRMGFDVLYLPPIHPIGKTKRKGKNNALTALPDDPGSPWAVGSHEGGHDAIQRELGTLADFERLVKEAESLGIEIALDIALQCSPDHPYLKEHPEWFLKRPDGTYQYAENPPKKYEDIIPFHFTEDNKDTLFREILRIFLFWMKRGVRIFRVDNPHTKPFALWEYVIGEVRKVDSGVIFLAEAFTRPKIMHHLARIGFDQSYTYFTWRNTKWELTEYLTELTKTEARNYLRPNFFVNTPDILPESLQWGGRAAFLTRLILAATLSSSYGIYGPAFEQMLSEAVPGKEDYIDSEKYEIKPWDFEKKGTISETIEIVNRIRKENPALQATGNLEFYATDNDYLLAYGKQGPQGESLLIVVNLDHYHTQSGYVTLPLMHLGIQEKEPYLVDDLLSGERYIWEGERNYIQLSPHLVPAHIFRIRPKMLRENNFDYFI
notes: GlgE (maltosyl-1-phosphate transferase) of Estrella lausannensis, glgE gene amplified from genomic DNA; monomer of 75-76 kD; Cloned in pET15b; also called GlgE-EL; source: E. coli Rosetta (DE3)
Which “stoichiometry N” value [4] does the source give for B1 here?
The value was 2.
